Experimental data as given in patent US20160068834A1 (Dana-Farber, published 2016).
Bridges are numbered along the chain shown (N, C = ends). Where no end group is shown, it is not given here. [ ]: non-standard residue; d: D form. The star is where a group is joined. FITC = O=C1OC2(c3ccc(O)cc3Oc3cc(O)ccc32)c2ccc(NC(=S)*)cc21; S5 = C=CCCC[C@](C)(N)C(=O)O

What was measured:
[1] = molecular target: purified EED (Example 6) (UniProt O75530 1-441, limits assumed); assay: competitive fluorescence polarization: EED 200 nM, FITC-EZH2(42-68) 20 nM as competitor, 30 min
Sequence of purified EED (Example 6) (O75530 whole entry): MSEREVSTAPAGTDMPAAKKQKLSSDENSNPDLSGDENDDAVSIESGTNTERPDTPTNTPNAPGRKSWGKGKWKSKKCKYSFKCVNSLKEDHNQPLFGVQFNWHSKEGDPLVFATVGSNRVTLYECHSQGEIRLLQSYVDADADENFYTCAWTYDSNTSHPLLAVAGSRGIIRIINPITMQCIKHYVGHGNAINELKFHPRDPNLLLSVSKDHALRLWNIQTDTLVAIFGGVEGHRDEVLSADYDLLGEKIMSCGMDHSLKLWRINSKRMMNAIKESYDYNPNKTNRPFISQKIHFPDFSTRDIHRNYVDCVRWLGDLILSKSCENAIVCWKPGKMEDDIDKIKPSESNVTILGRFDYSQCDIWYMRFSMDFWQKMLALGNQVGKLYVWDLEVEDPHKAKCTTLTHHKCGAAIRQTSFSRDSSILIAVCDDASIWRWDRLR
Experimental: The EED binding affinities of SAH-EZH2 and SAH-EZH2(42-68)AC were assessed by their capacities to displace FITC-labeled EZH2(42-68) peptide from EED. Serially diluted acetyl-SAH-EZH2 and the doubly stapled acetyl-SAH-EZH2(42-68)AC (dose range from 2.5 nM to 10 μIM) were incubated with purified EED (200 nM) and FITC-labeled EZH2(42-68) peptide (20 nM) for 30 min, followed by measurement of fluorescence polarization. N-terminal acetylated SAH-EZH2(42-68)AC displaced FITC-labeled EZH2(42-68) peptide from EED two times more efficiently than SAH-EZH2. The non-binding EZH2(47-64) construct was used as a negative control.

[2] = molecular target: T1, native EED in MLL-AF9 leukemia cells (UniProt Q921E6 2-441, limits assumed); assay: anti-FITC immunoprecipitation from peptide-treated MLL-AF9 cells, EED western
T1 construct: Endogenous intracellular protein
T1 sequence (Q921E6 2-441 limits assumed): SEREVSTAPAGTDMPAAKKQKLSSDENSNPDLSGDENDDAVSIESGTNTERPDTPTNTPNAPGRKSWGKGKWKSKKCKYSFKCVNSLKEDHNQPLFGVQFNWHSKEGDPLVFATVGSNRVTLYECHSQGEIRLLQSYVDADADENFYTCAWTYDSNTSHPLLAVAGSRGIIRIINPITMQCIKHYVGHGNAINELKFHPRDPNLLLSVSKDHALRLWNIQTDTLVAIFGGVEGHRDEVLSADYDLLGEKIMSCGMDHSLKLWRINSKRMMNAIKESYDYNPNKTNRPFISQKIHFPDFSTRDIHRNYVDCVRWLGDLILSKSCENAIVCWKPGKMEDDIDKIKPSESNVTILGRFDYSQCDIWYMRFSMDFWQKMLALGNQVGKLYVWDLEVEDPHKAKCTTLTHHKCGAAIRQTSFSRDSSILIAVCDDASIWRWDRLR
Experimental: To assess the interaction between SAH-EZH2 peptides and native EED, MLL-AF9 leukemia cells (2×10⁷) were cultured in 10 ml AF9 media using 10 cm dishes (BD Biosciences) and FITC-SAH-EZH2 peptides added to final concentration of 20 μM, followed by 8-12 h incubation. Treated cells were washed and trypsinized as above, lysed and then incubated with 50 μl of FITC-antibody (1 mg/ml) and 100 μl of protein G agarose (Roche) for 3 h. The amount of EED bound to FITC-SAH-EZH2 peptides was assessed by anti-EED western analysis (Millipore). To monitor for dissociation of native EED-EZH1/EZH2 complexes by SAH-EZH2, Sf21 cells were co-transfected with HA-EED and FLAG-EZH1 or FLAG-EZH2 baculovirus. EED-EZH1 and EED-EZH2 complexes were purified by anti-FLAG agarose (Sigma). EED-EZH1 and EED-EZH2 complexes (40 nM final concentration) were incubated with FITC-SAH-EZH2 peptides (final concentrations, 10, 3 and 1 μM) in 200 μl binding buffer for 2 h. After successive washes, the mixtures were incubated with anti-HA agarose (Sigma) and the level of HA-EED-bound EZH1 and EZH2 assessed by anti-HA western analysis.

| Binder | fold displacement efficiency against SAH-EZH2 [1] [fold] | binding result [2] |
| --- | --- | --- |
| Ac-FSSNR[S5]KIL[S5]RT[S5]ILN[S5]EWKQRRIQPV (staple 6-10, 13-17, Doubly stapled peptide; also called doubly stapled SAH-EZH2 peptide) [acetyl-SAH-EZH2(42-68)AC] | 2 |  |
| {FITC}-FSSNR[S5]KIL[S5]RTQILNQQWKQRRIQPV (staple 6-10, Negative control peptide; also called SAH-EZH2MUT; SAH-EZH2(42-68)A-E54,59Q) [FITC-SAH-EZH2A(42-68)E54Q/E59Q] |  | no binding (tested: 20 µM peptide on cells) |
